From PMC11763500
Where “and” joins values, the source holds several entries; their conditions need not be identical. Equal values may be shown once.

Legend:
[1] = target: SARS-CoV-2 spike (S) protein, beta (SARS-CoV-2 beta variant) (UniProt P0DTC2); experiment: electrochemical aptasensor (DPV); settings: 5' di-DTPA (2 dithiol phosphoramidite groups), on gold with PEG 2000 backfill
[2] = target: SARS-CoV-2 spike (S) protein, alpha (SARS-CoV-2 alpha variant) (UniProt P0DTC2); experiment: electrochemical aptasensor (DPV); settings: 5' di-DTPA (2 dithiol phosphoramidite groups), on gold with PEG 2000 backfill
[3] = target: SARS-CoV-2 spike (S) protein, Omicron (SARS-CoV-2 Omicron variant) (UniProt P0DTC2); experiment: electrochemical aptasensor (DPV); settings: 5' di-DTPA (2 dithiol phosphoramidite groups), on gold with PEG 2000 backfill
[4] = target: SARS-CoV-2 spike (S) protein, Omicron (SARS-CoV-2 Omicron variant) (UniProt P0DTC2); experiment: SPR; settings: 5' di-DTPA (2 dithiol phosphoramidite) in printed sequence; not stated whether present in SPR analyte

Sequence: GGGGGCGTCAAGCGGGGTCACATCGGAGTAGGGAATCTTG [C9t di-DTPA (surface-immobilized)]
- binding signal [1]: 27.1 dI/I0 and 43.6 dI/I0
- binding signal [2]: 17.9 dI/I0 and 31.9 dI/I0
- binding signal [3]: 1240 dI/I0

Sequence: GGGGGCGTCAAGCGGGGTCACATCGGAGTAGGGAATCTTG [C9t (SPR)]
- Kd [4]: 14.6 nM
